Measurements reported in patent US20180273587A1 (AILERON THERAPEUTICS, published 2018).
Starred links: 1 amine or outer side, 2 acyl side, 3 side chain; linkers in the order of their positions; H or OH if unused. Positions of bridges follow the written chain, without caps; N, C: chain ends. Non-standard residues stand in square brackets, D forms with d. hhL = hhLeu, CC(C)CCC[C@H](N[*:1])C(=O)[*:2]; Phe(4-F) = N[C@@H](Cc1ccc(F)cc1)C(=O)O; tBuAla = CC(C)(C)C[C@H](N)C(=O)O; R8 = C=CCCCCCC[C@@](C)(N)C(=O)O; Cha = N[C@@H](CC1CCCCC1)C(=O)O; αMeL = CC(C)C[C@](C)(N)C(=O)O; hLeu = CC(C)CC[C@H](N)C(=O)O; S5 = C=CCCC[C@](C)(N)C(=O)O

B1: SEQ ID NO: 1700 (peptide)
peptide: Ac-IWIAQALR[R8][Cha]GDAFN[S5]YYA-NH2
modifications: staple 9-16
SMILES: CC[C@H](C)[C@H](NC(C)=O)C(=O)N[C@@H](Cc1c[nH]c2ccccc12)C(=O)N[C@H](C(=O)N[C@@H](C)C(=O)N[C@@H](CCC(N)=O)C(=O)N[C@@H](C)C(=O)N[C@@H](CC(C)C)C(=O)N[C@@H](CCCNC(=N)N)C(=O)N[C@]1(C)CCCCCCC=CCCC[C@@](C)(C(=O)N[C@@H](Cc2ccc(O)cc2)C(=O)N[C@@H](Cc2ccc(O)cc2)C(=O)N[C@@H](C)C(N)=O)NC(=O)[C@H](CC(N)=O)NC(=O)[C@H](Cc2ccccc2)NC(=O)[C@H](C)NC(=O)[C@H](CC(=O)O)NC(=O)CNC(=O)[C@H](CC2CCCCC2)NC1=O)[C@@H](C)CC
B2: SEQ ID NO: 1706 (peptide)
peptide: Ac-IW[αMeL]AQALR[R8]IGDAFN[S5]YYA-NH2
modifications: staple 9-16
SMILES: CC[C@H](C)[C@H](NC(C)=O)C(=O)N[C@@H](Cc1c[nH]c2ccccc12)C(=O)N[C@@](C)(CC(C)C)C(=O)N[C@@H](C)C(=O)N[C@@H](CCC(N)=O)C(=O)N[C@@H](C)C(=O)N[C@@H](CC(C)C)C(=O)N[C@@H](CCCNC(=N)N)C(=O)N[C@]1(C)CCCCCCC=CCCC[C@@](C)(C(=O)N[C@@H](Cc2ccc(O)cc2)C(=O)N[C@@H](Cc2ccc(O)cc2)C(=O)N[C@@H](C)C(N)=O)NC(=O)[C@H](CC(N)=O)NC(=O)[C@H](Cc2ccccc2)NC(=O)[C@H](C)NC(=O)[C@H](CC(=O)O)NC(=O)CNC(=O)[C@H]([C@@H](C)CC)NC1=O
notes: also called Ac-IWAmLAQALR$r8IGDAFN$YYA-NH2
B3: SEQ ID NO: 1710 (peptide)
peptide: Ac-IWIAQALR[R8]IGDAFN[S5]Y[Phe(4-F)]A-NH2
modifications: staple 9-16
SMILES: CC[C@H](C)[C@H](NC(C)=O)C(=O)N[C@@H](Cc1c[nH]c2ccccc12)C(=O)N[C@H](C(=O)N[C@@H](C)C(=O)N[C@@H](CCC(N)=O)C(=O)N[C@@H](C)C(=O)N[C@@H](CC(C)C)C(=O)N[C@@H](CCCNC(=N)N)C(=O)N[C@]1(C)CCCCCCC=CCCC[C@@](C)(C(=O)N[C@@H](Cc2ccc(O)cc2)C(=O)N[C@@H](Cc2ccc(F)cc2)C(=O)N[C@@H](C)C(N)=O)NC(=O)[C@H](CC(N)=O)NC(=O)[C@H](Cc2ccccc2)NC(=O)[C@H](C)NC(=O)[C@H](CC(=O)O)NC(=O)CNC(=O)[C@H]([C@@H](C)CC)NC1=O)[C@@H](C)CC
B4: SEQ ID NO: 1705 (peptide)
peptide: Ac-[αMeL]WIAQALR[R8]IGDAFN[S5]YYA-NH2
modifications: staple 9-16
SMILES: CC[C@H](C)[C@H](NC(=O)[C@H](Cc1c[nH]c2ccccc12)NC(=O)[C@](C)(CC(C)C)NC(C)=O)C(=O)N[C@@H](C)C(=O)N[C@@H](CCC(N)=O)C(=O)N[C@@H](C)C(=O)N[C@@H](CC(C)C)C(=O)N[C@@H](CCCNC(=N)N)C(=O)N[C@]1(C)CCCCCCC=CCCC[C@@](C)(C(=O)N[C@@H](Cc2ccc(O)cc2)C(=O)N[C@@H](Cc2ccc(O)cc2)C(=O)N[C@@H](C)C(N)=O)NC(=O)[C@H](CC(N)=O)NC(=O)[C@H](Cc2ccccc2)NC(=O)[C@H](C)NC(=O)[C@H](CC(=O)O)NC(=O)CNC(=O)[C@H]([C@@H](C)CC)NC1=O
B5: SEQ ID NO: 1701 (peptide)
peptide: Ac-IWIAQALR[R8][tBuAla]GDAFN[S5]YYA-NH2
modifications: staple 9-16
SMILES: CC[C@H](C)[C@H](NC(C)=O)C(=O)N[C@@H](Cc1c[nH]c2ccccc12)C(=O)N[C@H](C(=O)N[C@@H](C)C(=O)N[C@@H](CCC(N)=O)C(=O)N[C@@H](C)C(=O)N[C@@H](CC(C)C)C(=O)N[C@@H](CCCNC(=N)N)C(=O)N[C@]1(C)CCCCCCC=CCCC[C@@](C)(C(=O)N[C@@H](Cc2ccc(O)cc2)C(=O)N[C@@H](Cc2ccc(O)cc2)C(=O)N[C@@H](C)C(N)=O)NC(=O)[C@H](CC(N)=O)NC(=O)[C@H](Cc2ccccc2)NC(=O)[C@H](C)NC(=O)[C@H](CC(=O)O)NC(=O)CNC(=O)[C@H](CC(C)(C)C)NC1=O)[C@@H](C)CC
B6: SEQ ID NO: 1712 (peptide)
peptide: Ac-IW[hLeu]AQALR[R8]IGDAFN[S5]YYA-NH2
modifications: staple 9-16
SMILES: CC[C@H](C)[C@H](NC(C)=O)C(=O)N[C@@H](Cc1c[nH]c2ccccc12)C(=O)N[C@@H](CCC(C)C)C(=O)N[C@@H](C)C(=O)N[C@@H](CCC(N)=O)C(=O)N[C@@H](C)C(=O)N[C@@H](CC(C)C)C(=O)N[C@@H](CCCNC(=N)N)C(=O)N[C@]1(C)CCCCCCC=CCCC[C@@](C)(C(=O)N[C@@H](Cc2ccc(O)cc2)C(=O)N[C@@H](Cc2ccc(O)cc2)C(=O)N[C@@H](C)C(N)=O)NC(=O)[C@H](CC(N)=O)NC(=O)[C@H](Cc2ccccc2)NC(=O)[C@H](C)NC(=O)[C@H](CC(=O)O)NC(=O)CNC(=O)[C@H]([C@@H](C)CC)NC1=O
notes: also called Ac-IWhLAQALR$r8IGDAFN$YYA-NH2
B7: SEQ ID NO: 1711 (peptide)
peptide: Ac-IW[tBuAla]AQALR[R8]IGDAFN[S5]YYA-NH2
modifications: staple 9-16
SMILES: CC[C@H](C)[C@H](NC(C)=O)C(=O)N[C@@H](Cc1c[nH]c2ccccc12)C(=O)N[C@@H](CC(C)(C)C)C(=O)N[C@@H](C)C(=O)N[C@@H](CCC(N)=O)C(=O)N[C@@H](C)C(=O)N[C@@H](CC(C)C)C(=O)N[C@@H](CCCNC(=N)N)C(=O)N[C@]1(C)CCCCCCC=CCCC[C@@](C)(C(=O)N[C@@H](Cc2ccc(O)cc2)C(=O)N[C@@H](Cc2ccc(O)cc2)C(=O)N[C@@H](C)C(N)=O)NC(=O)[C@H](CC(N)=O)NC(=O)[C@H](Cc2ccccc2)NC(=O)[C@H](C)NC(=O)[C@H](CC(=O)O)NC(=O)CNC(=O)[C@H]([C@@H](C)CC)NC1=O
notes: also called Ac-IWTbaAQALR$r8IGDAFN$YYA-NH2
B8: SEQ ID NO: 1702 (peptide)
peptide: Ac-IWIAQALR[R8][hhL]GDAFN[S5]YYA-NH2
modifications: staple 9-16
SMILES: CC[C@H](C)[C@H](NC(C)=O)C(=O)N[C@@H](Cc1c[nH]c2ccccc12)C(=O)N[C@H](C(=O)N[C@@H](C)C(=O)N[C@@H](CCC(N)=O)C(=O)N[C@@H](C)C(=O)N[C@@H](CC(C)C)C(=O)N[C@@H](CCCNC(=N)N)C(=O)N[C@]1(C)CCCCCCC=CCCC[C@@](C)(C(=O)N[C@@H](Cc2ccc(O)cc2)C(=O)N[C@@H](Cc2ccc(O)cc2)C(=O)N[C@@H](C)C(N)=O)NC(=O)[C@H](CC(N)=O)NC(=O)[C@H](Cc2ccccc2)NC(=O)[C@H](C)NC(=O)[C@H](CC(=O)O)NC(=O)CNC(=O)[C@H](CCCC(C)C)NC1=O)[C@@H](C)CC

target: T1, MCL-1 (UniProt Q07820 172-327, limits assumed); test: Ki table, method not stated
T1 construct: also called Myeloid cell leukemia 1
T1 sequence (Q07820 172-327 limits assumed): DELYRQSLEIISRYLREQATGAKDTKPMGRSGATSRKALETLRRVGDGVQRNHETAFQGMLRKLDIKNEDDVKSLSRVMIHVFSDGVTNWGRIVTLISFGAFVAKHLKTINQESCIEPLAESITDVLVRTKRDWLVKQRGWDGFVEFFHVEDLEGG

Ki [nM] | Binder
15.9 | B1
19.8 | B2
4.8 | B3
5.2 | B4
13.7 | B5
3.7 | B6
10.9 | B7
34.6 | B8

target: BCL-XL (UniProt Q07817 1-209); test: Ki table, method not stated
Sequence (Q07817 1-209): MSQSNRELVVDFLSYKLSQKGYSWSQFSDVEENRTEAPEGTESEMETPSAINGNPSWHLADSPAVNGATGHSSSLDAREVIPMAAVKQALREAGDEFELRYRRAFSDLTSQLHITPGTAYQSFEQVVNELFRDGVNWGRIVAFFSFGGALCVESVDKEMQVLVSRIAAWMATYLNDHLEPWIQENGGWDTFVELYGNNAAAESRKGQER

Ki [nM] | Binder
7.1 | B1
7.2 | B2
9.5 | B3
8.4 | B4
35.4 | B5
17 | B6
17.2 | B7
4 | B8

target: BCL-2 (UniProt P10415 1-217, limits assumed); test: Ki table, method not stated
Sequence (P10415 1-217 limits assumed): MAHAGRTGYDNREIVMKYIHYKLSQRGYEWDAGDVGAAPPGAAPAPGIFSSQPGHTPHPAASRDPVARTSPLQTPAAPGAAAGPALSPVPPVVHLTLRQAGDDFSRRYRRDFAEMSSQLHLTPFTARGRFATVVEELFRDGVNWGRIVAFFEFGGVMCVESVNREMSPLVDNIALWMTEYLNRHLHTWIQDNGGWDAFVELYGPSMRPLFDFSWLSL

Ki [nM] | Binder
109 | B1
24.8 | B2
91.8 | B3
48.3 | B4
227 | B5
36.5 | B6
36.6 | B7
23.1 | B8
